For 22 sequences, protein production results are on record in a protein production outcome set (Wang et al. 2014).

This data set can be described thus: label from the status in PepcDB records.
For the sequence “MSLDFWLYKQAQQNGHHIAITDGQESYTYQNLYCEASLLAKRLKAYQQSRVGLYIDNSIQSIILIHACWLANIEIAMINTRLTPNEMTNQMRSIDVQLIFCTLPLELRGFQIVSLDDIEFAGRDITTNGLLDNTMGIQYDTSNETVVPKESPSNILNTSFNLDDIASIMFTSGTTGPQKAVPQTFRNHYASAIGCKESLGFDRDTNWLSVLPIYHISGLSVLLRAVIEGFTVRIVDKFNAEQILTMIKNERITHISLVPQTLNWLMQQGLHEPYNLQKILLGGAKLSATMIETALQYNLPIYNSFGMTETCSQFLTATPEMLHARPDTVGMPSANVDVKIKNPNKEGHGELMIKGANVMNGYLYPTDLTGTFENGYFNTGDIAEIDHEGYVMIYDRRKDLIISGGENIYPYQIETVAKQFPGISDAVCVGHPDDTWGQVPKLYFVSESDISKAQLIAYLSKHLAKYKVPKHFEKVDTLPYTSTGKLQRNKLYREGHHHHHH”, the protein production result is listed as “not failed”.

In the case of “MRLALFDLDNTLLGGDSDHAWGDYLYQRGILDAATYKSRNDEFYQDYLAGTLNMTDYLNFTLEILGNTDMAQLQEWHREFMRDCIEPIMLPKALELIAKHREAGDKLVVITATNRFVTAPIVARLGIETLLATECEMVDGRYTGRTTGVPCFREGKVTRLNQWLEDNAFSLEDSYFYSDSMNDLPLLEQVANPVAVDPDARLRAEAEQRGWPVITLRS”, the protein production entry is “failed”.

“MKQKNAYNRLTNHYDDVLTGRKWWSWLYMHCLWKTDDNIIAGSVLDMIPGNFEGRILDVPVGTAIFTYDKYRRMPQAEIVGLDYSQEMLDIAAMRFSAEQITNVSLRQGDVGSLPFPDAAFDLVLSMNGFHVFPDKDRAFAETFRVLRGGGLFCGCFYVKGERKPADWFVRKFLDKKGLFRPPHYTREEAIEKLRSLYGDNVEIQDARSLLVFKCTKPRLEHHHHHH”: the protein production result is given as “not failed”.

Consider “SELKPTAPPIFTGRPFVVAWDVPTQDCGPRLKVPLDLNAFDVQASPNEGFVNQNITIFYRDRLGLYPRFDSAGRSVHGGVPQNVSLWAHRKMLQKRVEHYIRTQESAGLAVIDWEDWRPVWVRNWQDKDVYRRLSRQLVASRHPDWPPDRIVKQAQYEFEFAAQQFMLETLRYVKAVRPRHLWGFYLFPDCYNHDYVQNWESYTGRCPDVEVARNDQLAWLWAESTALFPSVYLDETLASSRHGRNFVSFRVQEALRVARTHHANHALPVYVFTRPTYSRRLTGLSEMDLISTIGESAALGAAGVILWGDAGYTTSTETCQYLKDYLTRLLVPYVVNVSWATQYCSRAQCHGHGRCVRRNPSASTFLHLSTNSFRLVPGHAPGEPQLRPVGELSWADIDHLQTHFRCQCYLGWSGEQCQWDHRQAAGGASEAWAGSHLTSLLALAALAFTWTL”, for which the protein production entry is recorded as “failed”.

As for “SSDASKVTSKGAGLSKAFVGQKSSFLVDCSKAGSNMLLIGVHGPTTPCEEVSMKHVGNQQYNVTYVVKERGDYVLAVKWGEEHIPGSPFHVTVP”, the protein production entry is listed as “not failed”.

Regarding “MIVEERIYRIRGGKMQEYLKLVREEGIAIQAPILGNLIGYFVTDIGPLSQVIHMWGYASLDDRAERRGKLAEDQRWQAFIPRLSVLIESSENRILLPTDFSPLR”, the protein production entry is listed as “not failed”.

As to “MNNVSTRAPVRGTKTSLTLPNILTYARIAAIPVVVGCIFAQSILGGPLALRWVALAVFIAAAITDFLDGHFARIWDQQSAFGRMLDPIADKLLVASCLLMLAADSIIHGWTLWAAIVILCREILVSGLREYLAALRVSVPVTRLAKWKTTAQLVAIGFLLAGEAGDEVLPFTTEIGVSLLWLSALLTMYTGYDYFRAGIHHLIEEDQA”, the protein production entry is “failed”.

On to “MSLSPDLLLAFALFALVTSITPGPNNTMLLASGVNFGFNRSIPHILGISCGFFVLVLAVGLGLGAVFEAYPLLYSVLRYVGAVYLLYLAWKIARSGPLSDEQQHHGRPLGYWGAAAFQWVNPKAWVMAVGAISTYTPLQGYFTNVLVIAAVFALINAPTVSLWAACGSLLRNVLRNPRWLRLFNLLMAALLVLSLAPLLFEKMS”, for which the protein production result is “failed”.

As for “MRTPRRAPEPVQVVKQRRDATLRALVDGVPYIQFLGIEFERRGDELTGILPFDQKLIGNPLLPAIHGGVTAAFLEVTAIITLSWTYLWEDMESGAIDAKGLASGGMPRLPKTIDISTDYLRSGLPRDAYARARIVRSGRRYASVHVEAWQDNRDRLFAQATGHFLMPDRRDS”, the protein production entry was “failed”.

With “MHYHGSCHCGTIRFDVEGELTGAMSCNCSICRRKGALLWFVPRDHLRLATPDEQIATYTFNRHLIKHRFCPTCGIHTHGEGVDQQGRAMAAINIRCLDDVDLDAVAVHQYDGRAA”, the protein production entry was “failed”.

As for “MKADILLVSHSKMITDGIKEMIEQMNASEEITIHSLGGTSDGSLGSDPMKIIDTINEADSDREFLIFADLGSAVLSSELAFDMLEEDQQKHYHLVDAPLVEGAFASAITAGVSDDLTQILAEAQNAGKKGWN”, the protein production result is reported as “not failed”.

“MVVSTDQAHSLGDVLGIAVPPTGQGDPVRVLAYDPEAGGGFLDALALDTLALLEGRWLHVVETLDRRFPGSELSSIAPEELCALPGIQEVLGLHAVGELAAARRWDRIVVDCASTADALRMLTLPATFGLYVERAWPRHRRLSIGADDGRSAVLAELLERIRASVERLSTLLTDGALVSAHLVLTPERVVAAEAVRTLGSLALMGVRVEELLVNQLLVQDENYEYRSLPDHPAFHWYAERIGEQRAVLDDLDATIGDVALVLVPHLAGEPIGPKALGGLLDSARRRQGSAPPGPLQPIVDLESGSGLASIYRLRLALPQLDPGTLTLGRADDDLIVSAGGMRRRVRLASVLRRCTVLDAHLRGGELTVRFRPNPEVWPT”: the protein production entry is given as “failed”.

As for “MAGAYLHIPFCEHICYYCDFNKVFIEGQPVDDYVAMLLKEMRMVMAEHPEEKIQTVYVGGGTPSTLTPTQLATLCQGIHDILHFDQGEFTFEANPNDLLTTEKLQVLHDYGVNRLSIGVQSFNDDVLRRIGRIHRAKDVYTAIANARQVGFDNISIDLIFRLPDQSRDDFLTSLQKALALDLPHYSTYSLILERKTIFYNLMRQGKLRLPTQDVEADMYQDAIDLMEAHGRHQYEISNFAKDGYQCEHNLLYWRNDKYFGFGAGAFGYLGRDRYHNYGPIKQYLTPLHADHLPVLEHHLVPQSEQIEEEMFLGLRTMQGVSEARFYDRYHMTVDAIYGETVPELVSQGLVVRQDGYIRLTNKGKFLGNEVFQRFLIDEPLVLEHHHHHH”, the protein production entry was “not failed”.

As to “SLSRRKPNPVIVADIRQAEGALAEIATIDRKVGEIEAQMNEAIDAAKARASQKSAPLLARRKELEDGVATFATLNKTEMFKDRKSLDLGFGTIGFRLSTQIVQMSKITKDMTLERLRQFGISEGIRIKEDVNKEAMQGWPDERLEMVGLKRRTTDAFYIEINREEVADTAA”, the protein production result is reported as “not failed”.

On to “MPEWAVILSICGLYLVLVLGLGVWSGRTVSASVDGYVAGDRTLGVIVLYFVLGASVFSSFAFLGAPGWAYSRGAAAFYIIAYGTVGMVPFYFLGPRARQVGEAFGFVTQAEMLAHRYDSRTLSVVLAALSVVAFVPYLTLQMKGAGLLLSTISDGVVPQWLGALAAYGVVLVYVFASGMMAIGWTNTVQGLFMMAVAWFLGLYLPETLHGGIQPMFEAIAASDKAAMLDVPGLAADGSPWSWAGYSSAVIVSAVGFSMWPHLFMRAFTAKSDRTLKLTVVLYPTFQLFLVPILLIGFAGVLAFPGVAPPDTIVPHLLTQIELSPVLVGLVCAGALAASMSSGDAILHAAASIGLRDGIKPLLAAPMTDTRQRQWIRGLVVATSATAYYFAVFSEVGIVALLLGAYGGVAQIFPLVFAAFYWPRATGAGALAGLLAGIGVNTLFLVAPHLRPFPLHEGVYGLAANIAVFLTVSLLTPPHDRDRLRAYTHSDRLAADETVAS”, for which the protein production result is “failed”.

For the sequence “MSNHSRDEPSTAPKTDQWYDLVLGSSAKDDSSHKFCTLRYEFKPASIDKNRSGSMHKKKDNRVSVEFQNNQPGKPKVTFEGSSEDYKESDAVLFFDGEKFRLERLHRAVTQLRHVRTPGESAAASQSAVPVEHRLSPVGRAAKSPQVNRSLLPDVPVEVERIEIGKPENSAEPANTGNVPATSPVEDKNDDGDEHQEIDLVEIFGSFTPENDNAEKENADGGEYVESLNKQLSMTEEEIADVDDDSGGEGEKGLNAAEALRAQVNAEVQKSQTSSSSSSSGSSSGSDSDGRSKSVSSGSGSGGQSSSGSSSRGSGGSDDEDEVNSV”, the protein production entry is listed as “failed”.

As to “MAKGSAKKSFLDLFKITDSNDDDFDDDMFDDEDEMEDEYDDPYDEAYDSEEEYDDGSDAASDRAKASPLKSFNKYKNSRTPSGNVSKTKTAKSSQNSKLVSINSRSDRDSYDDSEVFVIKPDEFDDAQMIIDHLNRGQIIVINMEDLDLPTAQRIADFIGGASYAVNGLFQAISGNIFLATPNGTYVSGDLREELAGGSLGGEDLSKATY”, the protein production result is recorded as “failed”.

Consider “MADPRTDNRNRKIPDAQVDAIKVPPHSLEAEQSVIGGLLLDNERWDTVSEHVMTQDFYSRPHRLIFDGVKSILEAGKPLDLITLSEYLEQREQLEDVGGFAYLADLAKNTPSAANINAYAEIVAERALVRNLIGVANEIADAGYDPQGRNAEDLLDLAESKVFAIAEARTSENEGPKNVDSILERTLERIELLYKTPQDGVTGVNTGFTDLNKKTAGLQGSDLIIVAARPSMGKTTFAMNLCENAAMEQDKPVLIFSLEMPAEQIMMRMLASLSRVDQTKIRTGQLDDEDWARISSTMGILMEKKNMYIDDSSGLTPTEVRSRARRIAREHGGLSLIMVDYLQLMRVPALTDNRTLEIAEISRSLKALAKELNVPVVALSQLNRSLEQRADKRPVNSDLRESGSIEQDADLIMFIYRDEVYHPDSPLKGTAEIIIGKQRNGPIGSVRLTFQGHYSRFDNYAGPAFDDE”, for which the protein production result was “not failed”.

As for “MKENDGAPLKEGETASKYSVIINMILVVIKGFTGYLSGNIALIADAIHSFADVFSSAAVFIGLKLSQRKPDELFPYGYHRIETLVSLLVSVLIIITGLEITWDSIIYILNPASEVSMATASLAVSLISIGVSYAIAFYKVRVGRRIGSTALLNDGKHSYVDVISSILVFLGILGEYMGLHGFQGIAGVIISVVIIYIGIRLAKYDVLTLLDACIDRDSIEVIKKTVLSVPGVEGVHDIRIRRSGPYLFGELHIELERGLPVDKIEGIISQINSRVKEVLPSIDHLTVQPETVKREEVVVAVPLADNHGMESRISTHFGRADSFLIARTRRGEILDYRIIENSGKSLRTKRGIRAAELLKDENIDVLVIEKLSEGPELLFSDYLLGKVPPEGSSLEEVIKNASMKFSE”, the protein production result was “failed”.

With “ASPVENKEVYQCRLCNAKLSSLLEQGSHERLCRNAAVCPYCSLRFFSPELKQEHESKCEYKKLTCLECMRTFKSSFSIWRHQVEVHNQNNMAPT”, the protein production entry is “not failed”.

On to “MKISVITINYNNGEQLEATIQSVVSNVTVLRELLGEKAEYIVIDGGSVDCSVSVLQKYSEYISYWISEKDKGIYHAMNKGISVAQGEYCFFLNSGDTFYEDDTLKKALLFLKEDFVCGNAVLKYAGGINEWSAPEIVNTLFFMQRFSVCHQSLFIRTELLKSHPYNETLMIVADYEQMFYEIAVNHRSYKKIDLTICYYGCDGVSSDHEKADAEKRSVINEFRYLGYIEPDELWNVVSKLKIGTRKYRLLLSLAKCLTSSPKYWVRLEHHHHHH”, for which the protein production result is listed as “not failed”.

For the sequence “MSKKKGLSAEEKRTRMMEIFSETKDVFQLKDLEKIAPKEKGITAMSVKEVLQSLVDDGMVDCERIGTSNYYWAFPSKALHARKHKLEVLESQLSEGSQKHASLQKSIEKAKIGRCETEERTRLAKELSSLRDQREQLKAEVEKYKDCDPQVVEEIRQANKVAKEAANRWTDNIFAIKSWAKRKFGFEENKIDRTFGIPEDFDYID”, the protein production result is reported as “failed”.
